Biological target: the molecule itself
Assay: SEC

B1: bacterioferritin B (BfrB) from Mycobacterium tuberculosis (natural protein)
chain: MTEYEGPKTKFHALMQEQIHNEFTAAQQYVAIAVYFDSEDLPQLAKHFYSQAVEERNHAMMLVQHLLDRDLRVEIPGVDTVRNQFDRPREALALALDQERTVTDQVGRLTAVARDEGDFLGEQFMQWFLQEQIEEVALMATLVRVADRAGANLFELENFVAREVDVAPAASGAPHAAGGRL
notes: also called BrfB; mycobacterial ferritin; copies: 24
B1: binds.

From article PMC8329864, “Mycobacterium tuberculosis ferritin: a suitable workhorse protein for cryo-EM development” (Acta Crystallographica. Section D, Structural Biology, 2021)
